Reference: the MegaScale stability set (Tsuboyama et al. 2023)

B1: HEEH_KT_rd6_0790 (parent)
chain: SEEEEEEWRRAKERGEEIIILGILWKPNDEEAERRIKEALRRV
B2: r16_88_TrROS_Hall (parent)
chain: EVIELKIKFKTPEQREKLKEIAKKLNAEVVEEKDGEVIIRFKTPEQAERALKEAEKLGAEVEL

Variants of: B1
Assay: folding stability dG (cDNA display proteolysis); higher = more stable
Conditions: PBS, room temperature

Folding stability dG [kcal/mol], by site and new letter:
L40: Y 1.1, F 1.78, S 0.788, T 0.781, C 1.55, V 1.25, A 1.12, G 0.586, K 1.06, H 1.26, I 1.97, E 0.814, R 1.2, P 0.583, N 0.57, M 1.76, W 1.45, Q 1, D 0.532
V43: L 2.79, P 1.84, S 2.21, G 1.84, H 2.45, Y 2.38, M 2.48, R 2.75, K 2.59, E 2.08, F 2.5, C 2.36, D 1.69, Q 2.26, A 2.38, N 1.86, I 2.31, T 1.88, W 2.45
I36: V 2.01, T 1.06, R 0.952, W 1.32, Y 1.02, S 0.815
E38: Y 0.909, I 1.91, S 1.67, W 1.02, Q 1.93, K 1.34, L 1.39, P 1.11, N 1.61, F 1.03, T 1.41, M 1.47, A 1.94, G 1.46, H 1.39, D 2.06, V 1.46, R 1.52
R42: N 1.84, Y 1.77, D 1.56, W 1.74, V 1.95, I 2, T 1.83, S 1.92, F 1.77, M 1.98, G 1.88, K 2.14, Q 2.09, C 1.95, A 2.11, P 1.33, H 1.79, L 2.09, E 1.75
A39: N 1.01, Q 1.6, T 1.31, E 1.53, K 1.79, H 1.38, V 1.6, D 0.764, I 1.81, L 2.06, F 1.69, W 1.7, S 1.26, G 1.32, C 2.06, P 0.322, M 2.1, Y 1.56, R 1.88
R41: I 1.76, E 1.89, L 2.07, N 1.97, A 2.07, C 2.43, W 1.67, F 1.76, Q 1.92, S 1.94, H 1.88, D 1.79, K 2.06, M 1.9, Y 1.74, T 1.81, G 1.74, V 1.75, P 0.888
K37: F 2.11, R 2.37, D 1.93, W 2.3, H 2, G 1.43, M 2.23, I 2.56, Y 2.08, S 1.85, T 2.4, Q 2.04, P 0.399, L 2.75, A 1.92, E 2.49, N 2.35, V 2.44

Variants of: B2
Assay: as above
Conditions: PBS, room temperature

Folding stability dG [kcal/mol]: each site, then its substitutions
A59: K 4.31, L 4.62, V 4.65, G 4.18, D 4.28, H 4.43
T11: Y 4.02, K 4.23, R 4.37, N 4.26
V30: F 4.61, I 4.46, G 4.26, C 4.38
T43: D 3.85, Y 4.43, K 4.36, M 4.56, G 4.08
F41: D 0.465, Y 4.23, K 0.67, T 3.73, V 4.09
L25: N 4.13, W 4.85
K17: E 4.3, T 4.2, G 4.38, Y 4.56
